Source: the DeepSol protein solubility set

Experiment: soluble on expression in E. coli; label from the status in PepcDB or PDB records

| Sequence | soluble on expression in E. coli |
| --- | --- |
| LSSKYSRNTELRRVEDNDIYRLAKILDENSCWRKLMSIIPKGMDVQACSGAGCLNFPAEIKKGFKYTAQDVFQIDEAANRLPPDQSKSQMMIDEWKTSGKLNERPTVGVLLQLLVQAELFSAADFVALDFLNESTPARPVDGPGALISLELLE | soluble |
| MAHHHHHHSLAYGNINQPFSLESLPDELIPENLYQIETDSSRVFQRHQCRRLAHLLLFQLLKIAGKSTALLSQIHRTESGRPYFLDERIDFNISHSGDWVAVILDIRNEEKSAVGIDIEFPKIRNFTALMEHIAPKEEIDWFHHQQDSLNAFYRCWCLREAVLKSQGFGIVKLSNVRHFPEQQKIFSDYCPQGQLWFTDELPIYLAAFVNHQEKLPHFYEWNRESLQIKELEKYVLYEVNEG | soluble |
| MGSDKIHHHHHHMLCALKHLFQGEPQQQAVSGLISTSYTDNDGETRISLKLEPRYENAGEVITKLVELDADPQVVRVGIQSSSIASFGSLENLVNAYGTLYRYLKDNYDSPAKLKKYWGYLANDVVFIQISTDVSSALKIFETINERGVGLNPMDLLKNLLFTQVGQAQFTQLKDEWKKITRPLEKGKEKPLFDHFVMQLENFLFYYIFTKTPTRDMERSFSQWANELRAIADAAECRCHNQWQGIDS | not soluble |
| WIVQKQKKWSSDPVGTQKNVFDLLIKKAQKTTFGKDHAFDSIQSHADYCRLVPVREYEGFKEYIELVKQGTQDVLWPGIPLYFAKTSGTTSGVKYIPITKDSIGYHINGAKDALLNYVHQTGKSEFLDKKLIFLSGSPIMEKKNGIYIGRLSGIVNHHVPGYLRGNQLPSFETNCVDDWESKLEKIVDETIDQDMSLISGIPPWVQMYFDRIEERTHKKIKDVFPSFSLLVYGGVNFSPYKRKLIESIGKEIDTVETYPASEGFIAFQDIPGQAGLLLLLNSGIFYEFIPVEEYGSANPTRLTIGEVKTDVNYALVMSTNAGLFAYSIGDTVKFVSTAPYRIVVTGRVKHFISAFGEHVIGEEVEQAMKNALLKHPEVSITEFTVAPQVTPEEGLPYHEWLIEFISMPADMDQFAHDLDQEMIQKNIYYKDLIVGNILRPLVITSISAGGF | not soluble |
| MRYIRQLCCVSLLCLSGSAVAANVRLQVEGLSGQLEKNVRAQLSTIESDEVTPDRRFRARVDDAIREGLKALGYYQPTIEFDLRPPPKKGRQVLIAKVTPGVPVLIGGTDVVLRGGARTDKDYLKLLDTRPAIGTVLNQGDYENFKKSLTSIALRKGYFDSEFTKAQLGIALGLHKAFWDIDYNSGERYRFGHVTFEGSQIRDEYLQNLVPFKEGDEYESKDLAELNRRLSATGWFNSVVVAPQFDKARETKVLPLTGVVSPRTENTIETGVGYSTDVGPRVKATWKKPWMNSYGHSLTTSTSISAPEQTLDFSYKMPLLKNPLEQYYLVQGGFKRTDLNDTESDSTTLVASRYWDLSSGWQRAINLRWSLDHFTQGEITNTTMLFYPGVMISRTRSRGGLMPTWGDSQRYSIDYSNTAWGSDVDFSVFQAQNVWIRTLYDRHRFVTRGTLGWIETGDFDKVPPDLRFFAGGDRSIRGYKYKSIAPKYANGDLKGASKLITGSLEYQYNVTGKWWGAVFVDSGEAVSDIRRSDFKTGTGVGVRWESPVGPIKLDFAVPVADKDEHGLQFYIGLGPELLEHHHHHH | not soluble |
| MYYGIKALTVGRGESVRAKITTTIEEALLNKAKALAKQEGLSGANAIIERALELYFTSIQSEVWEKSLSSGWIKKLVLKRDSILYENIKCRKTMENCRPDDYTPESLKAKGWKKV | not soluble |
| MHIMVTQGGLMSLSIVHTRAALGVNAPPITVEVHISKGLPGLTMVGLPETTVKEARDRVRSAIINSGYEYPAKKITINLAPADLPKEGGRYDLPIAIALLAASEQLTANKLDEYELVGELALTGALRGVPGAISSATEAIKSGRKIIVAKDNEDEVGLINGEGCLIADHLQAVCAFLEGKHALERPKPTDAVSRALQHDLSDVIGQEQGKRGLEITAAGGHNLLLIGPPGTGKTMLASRINGLLPDLSNEEALESAAILSLVNAESVQKQWRQRPFRSPHHSASLTAMVGGGAIPGPGEISLAHNGVLFLDELPEFERRTLDALREPIESGQIHLSRTRAKITYPARFQLVAAMNPSPTGHYQGNHNRCTPEQTLRYLNRLSGPFLDRFDLSLEIPLPPPGILSKTVVPGESSATVKQRVMAARERQFKRQNKLNAWLDSPEIRQFCKLESEDAMWLEGTLIHLGLSIRAWQRLLKVARTIADIDQSDIITRQHLQEAVSYRAIDRLLIHLQKLLT | not soluble |
| MSLDVNYVPQNTSDAPAIPSAALQQLTWTPVDQSKTQTTQLATGGQQLNVPGISGPVAAYSVPANIGELTLTLTSEVNKQTSVFAPNVLILDQNMTPSAFFPSSYFTYQEPGVMSADRLEGVMRLTPALGQQKLYVLVFTTEKDLQQTTQLLDPAKAYAKGVGNSIPDIPDPVARHTTDGLLKLKVKTNSSSSVLVGPLFGSSAPAPVTVGNTAAPAVAAPAPAPVKKSEPMLNDTESYFNTAIKNAVAKGDVDKALKLLDEAERLGSTSARSTFISSVKGKGEGHHHHHH | soluble |
| MSLKVKRPFDAYLDEMNKITILLPHAYGTSRTFRLQEGSNVKDLPIAHTIALPDATKYECFIEEPLDVGKYYTVRDERNEETDLQIGAVIRTAIFDEKYYYEGTDLGAVHQKEATTFKVWAPTARLAKVRIYKSDKEYTDYEMYREENGVWAHTLHGDLAGEKYTFLVCINLIWNEAVDPYAKSVTVNGKYGVVIDLEKTNVTKRGQLPPLQAMTDAILYELHIRDATIHPGSGVSKKGTYKGLMEEGTTGRNGTLTGLSHIKDLGVTHVELLPLYCFGGVDEANPSSAYNWGYNPLYYNAPTGYYATNPSDPYNRIVECKQLIETFHEHGIRVIIDVVYNHVYERELSSFEKLVPGYYFRHGENGMPSNGTGVGNDIASERKMMRKFIVESILYWLTEYNVDGFRFDLMGILDVDTINIIEKEVRNIKRDALLLGEGWDLQTPLPLEEKATLNNAKKMPHIAQFNDQFRDGIKGSTFHINKRGFAFGGYVDCNHLQYIASGSLLSMKETGLFLEPVQSINYVECHDNMTMWDKLMRSNEESEEILKKRHLLATAMVILSQGIPFLHAGQEFYRTKQGNENSYNANDEINQLDWDRKEKEIETVNYIKGLIAIRKEHGAFRLQNADLIKKHMTFLQTSPEVLAYHLEHVESFGPWKEIVVLFNSSLEAKTVQLPKEETWHVLVNEKQAKIEPISSFRGKELRLAPISTYILTIMEGHHHHHH | soluble |
| MAKEVWRFIDSGYCPPAFNMALDEALLDWHSEGKIPPTIRFYGWNPPTLSIGYFQKVEKEIDLEAVKRHGLGFVRRPTGGRGVLHDKELTYSVIVSESHPAMPKTVTEAYRVISQGILEGFRYLGLDAYFAVPRTEEEKADLRSPRSAVCFDAPSWYELVVEGRKIAGSAQTRQKGVILQHGSILLDLDEDLLFSLFKYPNERVKERLQRDFKKKAVAINELTSRTVTIEEAKEAFYKGFEKGLNIVLEPYTLTAEERAYVEELARTKYESDEWNFKR | not soluble |
| MVEKIERKSLAEQVYDQIKAEITSGAWKIGERIPKEADLMTQFGISRNTLREAIRALAHIGLLETKQGDGTFVRNNSELHAIMQKRVRESSVQEILEMRHALDREAVILACERRTDEDLKMLKKYKQLCYLANKDNDVTAFVKADSALHLTIVKAAHNDLLLDMYVNILEEIQFSITSTTEMNPAVNKHNGHATLVSAIEKRDKEGAAHEVTEYITLFKQIAAKNGDNK | not soluble |
| MSKKIRNTEVDHLFDAILTLENKEECYTFFEDVCTVNELLSISQRYEVAKMLREGKTYLDISNATGASTATISRVNRSLNYGNDGYDMVLERVLKKDE | not soluble |
| SAESPAFLSAKDEGSFAYLTIKDRTPQILTKVIDTLHRHKSEFFEKHGEEGIEAEKKAISLLSKLRNELQTDKPITPLVDKCVDTHIWNQYLEYQRSLLNEGDGEPRWFFSPWLFVECYMYRRIHEAIMQRQVYSQ | soluble |
| MNKFVKSLLVAGSVAALAACSSSNNDAAGNGAAQTFGGYSVADLQQRYNTVYFGFDKYDITGEYVQILDAHAAYLNATPAAKVLVEGNTDERGTPEYNIALGQRRADAVKGYLAGKGVDAGKLGTVSYGEEKPAVLGHDEAAYSKNRRAVLAY | soluble |
| MSLRILDIREQAIPVSRYDDPAIASGGLTTSIVAIVTDVVRDGRPVTGYGYASAGRFAQGGLIRERFAPRLLAAAEALADDAGTNLDPLRAWRAMMAGEKPGGHGERCVAVGTLDMAIWDAAAKIARVPLHCLIADRLGRAAPARTARVRVYAGGGYRYPRDDLARLSDEMRRIVDLGYTHAKIKIGATDLDVDRRRIEAAAARLADSAHLAVDAMNAYDATNAGDAAAMLAPFGLWWFEDVCDPLDLPLHAQLAAQYAPPIAAGEALFSLAEAKLLDRYGGLRSDRDVLVFDPVHCYGLSGYLQIVDHFVSRGWRRDAFWPHGGHLFSLHVVAALGLGGAEVNPFAFHPFSGLADGERVDAGYAALPSAPGIGFECHARVHAAFRALSVREGHHHHHH | soluble |
| MKSKLKLHGFNNLTKTLSFNIYDICYAETPQDQQAYVEYINSVYDAERLTRILTDVVDIIGANILNIARQDYDPQGASVTILISEQPVTPTESQIEESPGPLPETILAHLDKSHITVHTYPEIHPVDGIATFRVDIDVSTCGVISPLKALNYLIHKFESDIVTVDYRVRGFTRDVEGKKHFIDHEINSIQNYLSEDTRNGYQMTDVNVYQENLFHTKMLLKQFELDNYLFGDATSNLSAEQREQVTAKVKHEMLEIFYGRNVAV | not soluble |
| MIFGRSQRGKPPVEPVTLKILVAGGFGVGKTTLVGAVSEIRPLRTEELLTEAGRPVDDVSGVEGKHTTTVAMDFGRITLREDLVLYLFGTPGQERFWFMWDELSEGALGAVVLADTRRLEDCFAAIDYFERRSIPFVVGVNCFEGSARYPGETVRQALDLDEDVPLVMCDARDRESVKEVLIGVVQHAMTQAADRRRAVPTLEHHHHHH | not soluble |
| MSTAINSVEMSLSADEIRERVRAAGVVGAGGAGFPAHVKLQAQVEIFLVNAAECEPMLKVDQQLMWQQAARLVRGVQYAMTATGAREGVIALKEKYRRAIDALTPLLPDGIRLHILPDVYPAGDEVLTIWMATGRRVAPAALPASVGVVVNNVQTVLNIARAVEQRFPVTRRTLTVNGAVARPLTVTVPIGMSLREVLALAGGATVDDPGFINGGPMMGGLITSLDNPVTKTTGGLLVLPKSHPLIQRRMQDERTVLSVARTVCEQCRLCTDLCPRHLIGHELSPHLLVRAVNFHQAATPQLLLSALTCSECNVCESVACPVGISPMRINRMLKRELRAQNQRYEGPLNPADEMAKYRLVPVKRLIAKLGLSPWYQEAPLVEEEPSVEKVTLQLRQHIGASAVANVAVGERVTRGQCVADVPPGALGAPIHASIDGVVSAISEQAITVVRGLEHHHHHH | soluble |
| MAMGRTTQFTLDEVAKHADKDSCWLVIDGKVYAVEKFLNEHPGGEDVLLETAGRDATREFEDVGHSKSAREQLKEFYIGDVREPTAEELAAKRAVQASAAAERRDGDGVRANGLGKERLFAGGAFGAEPLSGGSSTWTLLKRLFVPVCIAVLVYLVREYSKQVQTGG | not soluble |
| YEGEKSVVVPVSATYKELHKLMEKEFKGKEFSVVDYDDDETILLIAVQSDKLYGTYYQFDTRTKKFTLLYDLMPQLKEEDMAEMRPIKFKSRDGLTIHGFITLPKAALEGKKVPLIVNPHGGPQGIRDSWGFNPETQLFASRGYATLQVNFRISGGYGKEFLRAGFKQIGRKAMDDVEDGVRYAISQGWVDPDRIAIYGASHGGYATLMGLVKTPDLYACGVDYVGVSNIYTFFDSFPEYWKPFKEMVKEIWYDLDNPEEAAIAKEVSPFFQIDKINKPLFVVQGANDPRVNINESDQIVTALRARGFEVPYMVKYNEGHGFHREENSMELYRAMLGFFAKHLK | not soluble |
